This is an account of results in US20100169992A1 (U3 PHARMA, published 2010).

The target in the assay is T1, FGFR4 expressed on cells (L6-FGFR4 myoblasts; ZR-75-1 breast cancer cells) (UniProt P22455 22-802, limits assumed).
T1 construct: whole, on cells; also called L6-FGFR4 cells; FGFR4-transfected L6 myoblasts
Put plainly: FACS Scatchard on L6-FGFR4 cells, anti-rat-PE detection. Here is the method:
L6-FGFR4 cells were harvested by incubation with 10 mM EDTA in PBS and resuspended at 6 million cells per ml in FACS buffer (PBS pH 7.4, 3% FCS, 0.1% NaN₃). In a round-bottom microtiter plate, 100 μl of cell suspension were added to 100 μl of antibody solution containing antibodies 10F10 or 9A5 at concentrations between 31.25 and 0.01 μg/ml in FACS buffer. Antibody binding was allowed to proceed for 2 hours ice. Then, cells were washed twice with 250 μl FACS buffer per well, and resuspended in 200 μl of secondary antibody (anti-rat-PE; Jackson), diluted 1:50 in FACS buffer. After 45 minutes of incubation, cells were again washed twice in FACS buffer, then resuspended in […] of PBS for FACS analysis. Analysis was carried out on a Beckman-Coulter FACS. To determine the apparent affinity constant KDapp, mean fluorescence values were plotted against the ratio of mean fluorescence and the corresponding antibody contration ([M]). The calculated KDapp resulted from the inverse slope of the straight line (FIG. 2).

T1 sequence (P22455 22-802 limits assumed): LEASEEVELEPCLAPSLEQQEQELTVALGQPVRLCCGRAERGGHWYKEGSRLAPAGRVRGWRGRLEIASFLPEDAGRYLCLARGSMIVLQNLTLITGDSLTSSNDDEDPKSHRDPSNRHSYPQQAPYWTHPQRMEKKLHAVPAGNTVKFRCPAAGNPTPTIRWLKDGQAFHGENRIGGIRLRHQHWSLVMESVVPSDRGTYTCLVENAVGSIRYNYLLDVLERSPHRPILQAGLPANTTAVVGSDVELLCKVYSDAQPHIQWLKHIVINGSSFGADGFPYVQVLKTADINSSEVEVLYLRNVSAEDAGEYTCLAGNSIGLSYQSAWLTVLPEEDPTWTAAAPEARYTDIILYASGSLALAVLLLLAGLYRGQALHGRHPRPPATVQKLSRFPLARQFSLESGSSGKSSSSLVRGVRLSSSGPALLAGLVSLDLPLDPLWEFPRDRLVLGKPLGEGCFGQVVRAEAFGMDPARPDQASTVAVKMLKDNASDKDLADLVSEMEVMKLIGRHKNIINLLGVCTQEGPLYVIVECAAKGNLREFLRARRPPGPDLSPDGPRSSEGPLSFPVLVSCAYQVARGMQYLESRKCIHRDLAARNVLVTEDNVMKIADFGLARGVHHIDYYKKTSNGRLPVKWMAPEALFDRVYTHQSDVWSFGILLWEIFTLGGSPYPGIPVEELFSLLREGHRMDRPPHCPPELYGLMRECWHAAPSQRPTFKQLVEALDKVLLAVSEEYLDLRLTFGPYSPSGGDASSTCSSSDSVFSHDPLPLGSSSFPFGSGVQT

B1: anti-FGFR4 antibody 10F10 (antibody, V domains shown)
VH: EVQLKESGPGLVQPSQTLSLTCTVSGFSLTDYSVHWVRQPPGKGLEWMGVVWSSGSTAYNSALKSRLRITRDTSKSQAFLKMNSLQTEDTAIYYCTRPRYSSWFVYWGQGTLVTVSS
VL: DTVLTQSPALAVSLGQRVTISCRASKSVSTFIHWYQQKSGQQPKLLIYSASNTESGPSRFSGSGSGTDFTLTIDPVEADDIANYYCQQSNELPWTFGGGTKLELKR
notes: Rat monoclonal antibody from a hybridoma (rats immunised with FGFR4-ECD-GST)
As for B1, the binding result was “binds”.

B2: anti-FGFR4 antibody 9A5 (antibody, V domains shown)
VH: QVQLRESGPGLVQPSQTLSLTCTVSGFSLTFYHVSWVRQPPGKGLEWMGVIWTGGSTTYNSLLKSRLTISRDTSKSQVFLKMNSLQTEDTATYYCARGGGDRGYFAFWGPGTMVTVSS
VL: NTVMTQSPTSMFTSVGDRVTMSCKASQNVGINVGWYQQKTGQSPKRLIYWASNRDTGVPDRFTGSGSGTDFTLTISNMQAEDPAIYYCLQHNSYPWTFGGGTKLELKR
notes: Rat monoclonal antibody from a hybridoma
Take B2: the binding result is “binds”.
